# From IntAct's records for PubMed 17785451
# B1: CBL-interacting serine/threonine-protein kinase 24 (Arabidopsis thaliana (Mouse-ear cress)), Q9LDI3 (parent)
# chain: MTKKMRRVGKYEVGRTIGEGTFAKVKFARNTDTGDNVAIKIMAKSTILKNRMVDQIKREISIMKIVRHPNIVRLYEVLASPSKIYIVLEFVTGGELFDRIVHKGRLEESESRKYFQQLVDAVAHCHCKGVYHRDLKPENLLLDTNGNLKVSDFGLSALPQEGVELLRTTCGTPNYVAPEVLSGQGYDGSAADIWSCGVILFVILAGYLPFSETDLPGLYRKINAAEFSCPPWFSAEVKFLIHRILDPNPKTRIQIQGIKKDPWFRLNYVPIRAREEEEVNLDDIRAVFDGIEGSYVAENVERNDEGPLMMNAFEMITLSQGLNLSALFDRRQDFVKRQTRFVSRREPSEIIANIEAVANSMGFKSHTRNFKTRLEGLSSIKAGQLAVVIEIYEVAPSLFMVDVRKAAGETLEYHKFYKKLCSKLENIIWRATEGIPKSEILRTITF
# partner: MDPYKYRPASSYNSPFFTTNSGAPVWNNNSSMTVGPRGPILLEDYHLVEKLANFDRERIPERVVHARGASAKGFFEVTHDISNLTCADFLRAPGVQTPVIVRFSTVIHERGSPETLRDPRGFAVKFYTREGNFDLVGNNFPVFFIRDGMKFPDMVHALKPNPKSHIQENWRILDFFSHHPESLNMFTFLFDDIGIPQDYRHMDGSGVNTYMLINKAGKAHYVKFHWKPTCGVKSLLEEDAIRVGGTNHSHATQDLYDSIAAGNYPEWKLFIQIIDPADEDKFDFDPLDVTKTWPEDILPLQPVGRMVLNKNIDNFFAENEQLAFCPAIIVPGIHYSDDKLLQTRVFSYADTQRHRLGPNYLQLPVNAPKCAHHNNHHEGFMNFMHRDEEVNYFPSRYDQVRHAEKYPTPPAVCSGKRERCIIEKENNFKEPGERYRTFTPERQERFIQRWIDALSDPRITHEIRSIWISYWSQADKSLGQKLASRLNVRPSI
# Variants of: B1
# Conditions: with cata2_arath CAT2, P25819
row,Variant,effect of a mutation on the interaction
1,MTKKMRRVGKYEVGRTIGEGTFAKVKFARNTDTGDNVAINIMAKSTILKNRMVDQIKREISIMKIVRHPNIVRLYEVLASPSKIYIVLEFVTGGELFDRIVHKGRLEESESRKYFQQLVDAVAHCHCKGVYHRDLKPENLLLDTNGNLKVSDFGLSALPQEGVELLRTTCGTPNYVAPEVLSGQGYDGSAADIWSCGVILFVILAGYLPFSETDLPGLYRKINAAEFSCPPWFSAEVKFLIHRILDPNPKTRIQIQGIKKDPWFRLNYVPIRAREEEEVNLDDIRAVFDGIEGSYVAENVERNDEGPLMMNAFEMITLSQGLNLSALFDRRQDFVKRQTRFVSRREPSEIIANIEAVANSMGFKSHTRNFKTRLEGLSSIKAGQLAVVIEIYEVAPSLFMVDVRKAAGETLEYHKFYKKLCSKLENIIWRATEGIPKSEILRTITF [K40N],increasing interaction
